Reference: patent US20210206877A1 (Genentech, published 2021)
Substitutions are numbered along the chain they refer to.

B1: 6314 (antibody, V domains shown)
VH: QLQLQESGPGLVKPSETLSLTCTVSGGSISRGSYYWGWIRQPPGKGLEWIGMIYYSGSTWYNPSLKSRVTISVDTSKNQFSLKLSSVTAADTAVYYCARVGHGVSYFDLWGRGTLVTVSS
VL: EIVLTQSPATLSLSPGERATLSCRASQSVSSYLAWYQQKPGQAPRLLIYDASNRATGIPARFSGSGSGTDFTLTISSLEPEDFAVYYCQQSIVWPPRTFGGGTKVEIK
B2: 6311 (antibody, V domains shown)
VH: B1 VH with R31W, G32S, G37S, M52S, Y55R, S58R, W60Y, V104I, S105N
VL: B1 VL with I92L, V93T
B3: 6307 (antibody, V domains shown)
VH: B1 VH with R31W, G32S, G37S, M52S, Y55R, S58R, W60Y, S67G, V104I, S105N
VL: B1 VL
B4: 6313 (antibody, V domains shown)
VH: B1 VH
VL: B1 VL with S91A, I92Y
B5: 6308 (antibody, V domains shown)
VH: B1 VH with R31W, G32S, G37S, M52S, Y55R, S58R, W60Y, V104I, S105N
VL: B1 VL with N53K, I92L
B6: 6309 (antibody, V domains shown)
VH: B1 VH with R31W, G32S, G37S, M52S, Y55R, S58R, W60Y, V104I, S105N
VL: B1 VL with V93T
B7: 6315 (antibody, V domains shown)
VH: B1 VH
VL: B1 VL with N53K, I92L, T103A
B8: 6310 (antibody, V domains shown)
VH: B1 VH with R31W, G32S, G37S, M52S, Y55R, S58R, W60Y, V104I, S105N
VL: B1 VL with I92V, V93T
B9: 6303 (antibody, V domains shown)
VH: QVQLVQSGAEVKKPGSSVKVSCKASGGTLSGYAISWVRQAPGQGLEWMGNIIPGFGTANYAQKSQGRVTITADESTSTAYMELSSLRSEDTAVYYCARSGGTRYGMLDVWGQGTMVTVSS
VL: EIVMTQSPATLSVSPGERATLSCRASQSVSSNLAWYQQKPGQAPRLLIFGASTRATGIPARFSGSGSGTEFTLTISSLQSEDFAVYYCQQLLTWPPRTFGGGTKVEIK
B10: 6300 (antibody, V domains shown)
VH: B9 VH
VL: B9 VL with M4L, S30G, F49Y, L91S, L92F, T93L
B11: 6299 (antibody, V domains shown)
VH: B9 VH
VL: B9 VL with S30G, F49Y, L91S, L92Y, T93L
B12: 6305 (antibody, V domains shown)
VH: B9 VH
VL: B9 VL with M4L, S30G, F49Y, L91S, L92F, T93V
B13: 5896 (antibody, V domains shown)
VH: B1 VH with R31S, G32S, M52S, Y55R, W60Y, V104I
VL: B1 VL with I92L, V93T
B14: 5897 (antibody, V domains shown)
VH: B1 VH with R31W, G32S, G37S, M52S, Y55K, S58R, W60Y, V104I
VL: B1 VL with I92L, V93T
B15: 5893 (antibody, V domains shown)
VH: B9 VH with L29F, S30R, S64F, R103K
VL: B9 VL with S30G, F49Y, L92Y
B16: 5892 (antibody, V domains shown)
VH: B9 VH with L29F, G31S, G54I, N59T, S64F, R103K
VL: B9 VL with S30G, F49Y, L92Y
B17: antibody 6266 (antibody, V domains shown)
VH: B9 VH with Q1E, A33G, I34V, S64F, R103K
VL: B9 VL with F49Y, L92I, T93L

Target: T1, BACE1 endogenous to primary cortical neurons from E16.5 CD1 mice (mouse, UniProt P56818 46-501)
Assay: cell-based or functional assay
Throughout, for % inhibition, FRET short substrate assay (negative = activation): test concentration or dose not given here.

T1 sequence (P56818 46-501): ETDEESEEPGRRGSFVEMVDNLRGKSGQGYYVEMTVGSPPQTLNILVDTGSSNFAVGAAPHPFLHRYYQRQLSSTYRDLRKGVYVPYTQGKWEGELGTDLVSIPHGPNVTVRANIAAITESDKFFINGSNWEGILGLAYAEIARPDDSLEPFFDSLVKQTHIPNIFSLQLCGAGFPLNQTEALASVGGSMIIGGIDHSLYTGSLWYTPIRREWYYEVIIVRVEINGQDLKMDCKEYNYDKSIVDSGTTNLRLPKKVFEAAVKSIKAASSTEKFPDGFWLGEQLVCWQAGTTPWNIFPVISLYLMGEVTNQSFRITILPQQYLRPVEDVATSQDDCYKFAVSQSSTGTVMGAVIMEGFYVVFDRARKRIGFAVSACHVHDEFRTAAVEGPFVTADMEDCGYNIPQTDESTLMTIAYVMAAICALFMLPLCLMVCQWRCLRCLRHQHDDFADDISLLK

| max % inhibition, Abeta x-40 in mouse cortical neurons [%] | Binder |
| --- | --- |
| 71 | B1 |
| 63 | B2 |
| 68 | B3 |
| 67 | B4 |
| 60 | B5 |
| 60 | B6 |
| 73 | B7 |
| 71 | B8 |
| 76 | B9 |
| 71 | B10 |
| 70 | B11 |
| 67 | B12 |

Target: BACE1 ECD (as used in the enzyme activity assay) (UniProt P56817 22-457, limits assumed)
Assay: cell-based or functional assay

Sequence of BACE1 ECD (as used in the enzyme activity assay) (P56817 22-457 limits assumed): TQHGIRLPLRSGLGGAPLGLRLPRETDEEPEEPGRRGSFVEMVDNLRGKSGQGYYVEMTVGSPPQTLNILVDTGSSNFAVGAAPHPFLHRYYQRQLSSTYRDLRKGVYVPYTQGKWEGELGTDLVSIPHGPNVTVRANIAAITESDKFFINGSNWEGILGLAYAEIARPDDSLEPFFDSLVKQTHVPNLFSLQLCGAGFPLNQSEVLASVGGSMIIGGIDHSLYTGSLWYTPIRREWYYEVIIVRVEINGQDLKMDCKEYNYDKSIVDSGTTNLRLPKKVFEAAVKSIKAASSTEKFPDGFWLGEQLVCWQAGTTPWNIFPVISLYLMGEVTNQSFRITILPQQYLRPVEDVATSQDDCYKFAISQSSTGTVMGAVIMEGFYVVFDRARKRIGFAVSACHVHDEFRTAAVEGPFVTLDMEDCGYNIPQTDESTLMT

| EC50, FRET short substrate assay [nM] | EC50, HTRF long substrate assay [nM] | Binder |
| --- | --- | --- |
| 3.35 | 3.46 | B13 |
| 0.528 | 1.39 | B14 |
| 8.84 | 3.59 | B15 |
| 16.4 | 1.19 | B16 |

Target: T1, BACE1 endogenous to primary cortical …
Assay: cell-based or functional assay
Remark: another data set of the same source

| max % inhibition, Abeta x-40 in mouse cortical neurons [%] | Binder |
| --- | --- |
| 87 | B17 |

Target: human BACE1 ECD (human, UniProt P56817)
Assay: cell-based or functional assay

Sequence of human BACE1 ECD (P56817 22-457): as the sequence (P56817 22-457 limits assumed) above

| % inhibition, FRET short substrate assay (negative = activation) [%] | Binder |
| --- | --- |
| -4 | B13 |
| 1 | B14 |
| 72 | B15 |
| 64 | B16 |

Target: murine BACE1 ECD
Assay: cell-based or functional assay

Sequence of murine BACE1 ECD (single chain, as listed by the source limits assumed): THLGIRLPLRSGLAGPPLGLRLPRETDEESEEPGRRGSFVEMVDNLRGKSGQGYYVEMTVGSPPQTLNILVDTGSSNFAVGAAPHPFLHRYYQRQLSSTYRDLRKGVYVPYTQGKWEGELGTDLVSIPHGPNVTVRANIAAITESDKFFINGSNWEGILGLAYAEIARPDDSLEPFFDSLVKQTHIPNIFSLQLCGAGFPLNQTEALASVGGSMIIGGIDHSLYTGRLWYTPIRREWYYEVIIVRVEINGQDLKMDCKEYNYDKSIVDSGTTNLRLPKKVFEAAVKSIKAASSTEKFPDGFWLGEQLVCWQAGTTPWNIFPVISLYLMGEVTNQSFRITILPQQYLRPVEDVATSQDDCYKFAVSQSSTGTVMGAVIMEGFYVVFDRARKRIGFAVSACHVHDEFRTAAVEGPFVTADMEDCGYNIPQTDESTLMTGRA

| % inhibition, FRET short substrate assay (negative = activation) [%] | Binder |
| --- | --- |
| -3 | B13 |
| -3 | B14 |
| 69 | B15 |
| 64 | B16 |

Target: T1, BACE1 endogenous to primary cortical …
Assay: cell-based or functional assay
Remark: another data set of the same source

| IC50, inhibition of Aβx-40 production in primary mouse cortical neuron cultures (sandwich ELISA of supernatants) [nM] | Binder |
| --- | --- |
| 1.7 | B17 |

Target: T1, BACE1 endogenous to primary cortical …
Assay: cell-based or functional assay
Remark: another data set of the same source

| IC50, Abeta x-40 in mouse cortical neurons (row 5896*, second run) [nM] | max % inhibition, Abeta x-40 in mouse cortical neurons [%] | Binder |
| --- | --- | --- |
| 5.72 | 65 | B13 |
| – | 62 | B14 |
| – | 73 | B15 |
| – | 73 | B16 |
